The text below walks through data of patent publication US20190031761A1 (SAMSUNG LIFE PUBLIC WELFARE FOUNDATION, published 2019).

Assay [1] has as its target T1, EGFRvIII expressed in cells (vIII352T1 cells; 626 patient-derived cells) (human, UniProt P00533 25-1210).
T1 construct: whole, on cells; On vIII352T1 cells (EGFR-/EGFRvIII+) in FACS and cytotoxicity assays
Nature of the assay: FACS on vIII352T1 cells (EGFRvIII only), Alexa Fluor 488 anti-human IgG.

Assay [2] has as its target T2, EGFRvIII recombinant protein with Fc tag, produced in-house (human).
T2 construct: Produced in Expi293 cells; also called EGFRvIII antigen
Briefly: SPR (Biacore T200), antibody captured with human Fab capture kit, EGFRvIII antigen 0.25 nM to 256 nM as analyte.

Assay [3] has as its target T3, recombinant human EGFR/ErbB1 Fc chimera protein (R&D systems, 344-ER) (human, UniProt P00533 25-645).
T3 construct: Bought protein; also called EGFR recombinant protein; Fc part of the bought chimera not given
Briefly: SPR (Biacore T200), B4A3 captured as ligand, rhEGFR-Fc as sample, 25 C, 1:1 Binding fit to sensorgrams that hardly leave the baseline. For orientation: SPR reads the build-up and loss of mass on a sensor chip optically.

Assay [4] has as its target EGFR expressed on cells (780 patient-derived cells; normal human epidermal keratinocytes) (human, UniProt P00533 25-1210). Briefly: FACS on normal human epidermal keratinocytes (EGFR only), Alexa Fluor 488 anti-human IgG.

T2 sequence (chain, as listed by the source limits assumed): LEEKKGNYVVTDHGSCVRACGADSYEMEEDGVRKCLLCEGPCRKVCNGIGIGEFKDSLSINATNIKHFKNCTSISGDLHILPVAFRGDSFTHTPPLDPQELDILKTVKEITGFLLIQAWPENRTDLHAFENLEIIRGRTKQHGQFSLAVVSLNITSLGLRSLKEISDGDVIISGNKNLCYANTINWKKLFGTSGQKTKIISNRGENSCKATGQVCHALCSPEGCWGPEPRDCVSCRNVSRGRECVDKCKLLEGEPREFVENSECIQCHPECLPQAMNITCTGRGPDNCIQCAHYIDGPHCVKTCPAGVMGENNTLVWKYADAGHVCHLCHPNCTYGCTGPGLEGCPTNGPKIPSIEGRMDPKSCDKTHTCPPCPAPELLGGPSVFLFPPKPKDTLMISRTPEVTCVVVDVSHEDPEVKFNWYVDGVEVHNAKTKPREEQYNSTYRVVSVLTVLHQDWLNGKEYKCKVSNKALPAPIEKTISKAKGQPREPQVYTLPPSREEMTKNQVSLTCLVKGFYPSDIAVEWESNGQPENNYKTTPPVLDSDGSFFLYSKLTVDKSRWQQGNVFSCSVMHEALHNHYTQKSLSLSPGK

B1: B4A3 antibody (human IgG1) (antibody, V domains shown)
VH: EVQLLESGGGLVQPGGSLRLSCAASGFTFSNYYMSWVRQAPGKGLEWVSGTSPNGGSKYYADSVKGRFTISRDNSKNTLYLQMNSLRAEDTAVYYCAKGRRKLRATRFDYWGQGTLVTVSS
VL: QSVLTQPPSASGTPGQRVTISCTGSSSNIGNNYVSWYQQHPGTAPKLLIYSDSNRPSGVPDRFSGSKSGTSASLAISGLRSEDEADYYCATWDASLSAYVFGGGTKLTVL
notes: also called B4A3 IgG; B4A3 human IgG1
In the case of B1, in assay [1], the “EC50 (read off the curve)” value is roughly 0.04 nM. Moreover, in assay [2], the dissociation constant (Kd) was found to be 4.38 nM, the off-rate (koff) came out at 0.000248 s⁻¹ and the kon was determined as 56600 M⁻¹ s⁻¹. Further, in assay [3], the dissociation rate constant (koff) was found to be 0.00801 s⁻¹ and the kon was 632 M⁻¹ s⁻¹. Besides, the “EC50 (read off the curve)” value in assay [4] was roughly 0.03 nM.

In general, EC50 (read off the curve) refers to the concentration giving half of the maximal effect. High values mean a need for much substance, low ones an effect from little substance. A word on the Kd: it is the constant that tells how readily two partners part at equilibrium. In general, koff refers to the rate constant with which the complex falls apart. As usually defined, the kon is the rate constant with which the complex forms.
